This data set deals with T1, OhsR-SSM (S-mycothiolated OhsR) (Corynebacterium glutamicum), ORF:a3d30e29.
T1 sequence: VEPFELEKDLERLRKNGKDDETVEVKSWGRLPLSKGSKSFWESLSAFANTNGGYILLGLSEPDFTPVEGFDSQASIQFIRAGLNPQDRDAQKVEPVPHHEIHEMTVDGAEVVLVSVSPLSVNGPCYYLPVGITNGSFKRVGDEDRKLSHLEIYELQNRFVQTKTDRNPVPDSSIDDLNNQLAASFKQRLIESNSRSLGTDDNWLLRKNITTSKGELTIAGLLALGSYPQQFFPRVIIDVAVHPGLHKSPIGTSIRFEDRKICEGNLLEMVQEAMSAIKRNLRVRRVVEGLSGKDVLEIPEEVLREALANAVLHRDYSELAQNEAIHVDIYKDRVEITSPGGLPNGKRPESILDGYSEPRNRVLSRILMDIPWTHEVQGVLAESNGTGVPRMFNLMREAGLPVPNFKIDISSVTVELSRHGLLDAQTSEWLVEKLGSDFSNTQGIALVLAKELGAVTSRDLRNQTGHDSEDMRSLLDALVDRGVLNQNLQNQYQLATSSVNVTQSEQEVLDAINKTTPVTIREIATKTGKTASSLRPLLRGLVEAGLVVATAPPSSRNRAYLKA
The data set is described as follows: EMSA. The following applies: EMSA: 20 mM Tris-HCl pH 7.4, 4 mM MgCl2, 100 mM NaCl, 10% glycerol, room temperature 30 min; 20 ng DNA, 0-4 ug OhsR; 6% native PAGE, 0.5x TBE, SYBR Green. Background: In EMSA bound probe runs differently from free probe, usually more slowly.

“CACCTTGTTGGTGGGCCGGGATTTTTGTTGTTTAGATTTTTGAAAGCACACTTTTGTCCCTTAACTAGTGCGTGTGTACATTCGACACCAAGATTTGGGCAATATGGTGCCCAAAATCAGGAAATCTTGCTGTCTAATGCACAACGGAAAACTGCTCACGGACGAACTAGTTGTAGCGAGCGTATTCTTTGTGTTCTCTC (double strand) [Pohr (ohr promoter, 200 bp)]”: the binding entry was “binds”.

(Values after article PMC6306002.)
